Assay results taken from article PMC4999211, “Amlexanox Blocks the Interaction between S100A4 and Epidermal Growth Factor and Inhibits Cell Proliferation” (PLoS ONE, 2016).

Target: T1, mutant S100A4 (C3S, C76S, C81S, C86S) (human, UniProt P26447 1-101, C3S | C76S | C81S | C86S)
T1 construct: human S100A4 with all four cysteines mutated to serines; residue numbers 1-101 in the HSQC bar graph; 15N-labelled where it was the observed protein in HSQC; No tag is named; also called mS100A4; quadruple mutant S100A4; source: E. coli BL21 (DE3), pET21b, purified (ammonium sulfate, Hi-Prep Q XL, Hi-Prep Phenyl FF, Superdex 75)
T1 sequence (P26447 whole entry C3S/C76S/C81S/C86S, one chain of several): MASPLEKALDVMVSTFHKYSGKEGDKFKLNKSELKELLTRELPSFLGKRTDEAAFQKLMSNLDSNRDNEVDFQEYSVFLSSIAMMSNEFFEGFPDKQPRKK
Experiment: other fluorescence titration; intrinsic tryptophan fluorescence of EGF (8 uM), excitation 295 nm, emission at 345 nm; mS100A4 added at 0-22 uM; double-reciprocal plot, one-site binding model
Conditions: both partners purified

B1: human epidermal growth factor (ligand, UniProt P01133 971-1023, looked up)
chain: NSDSECPLSHDGYCLHDGVCMYIEALDKYACNCVVGYIGERCQYRDLKWWELR
notes: human epidermal growth factor, the mature hormone cut from pro-EGF; three disulfide bonds; 15N-labelled where it was the observed protein in HSQC; also called EGF; recombinant EGF
For B1, which Kd is on record?
Its Kd is 5.2 µM.
